# Data as given in patent publication US20190292229A1 (COMMISSARIAT A L ENERGIE ATOMIQUE ET AUX ENERGIES …, published 2019).
# B1: P1-50 with a TEV peptide amino acid sequence (first 50 amino acids of measles virus phosphoprotein, Edmonston strain, after TEV cleavage) (peptide)
# peptide: MAEEQARHVKNGLECIRALKAEPIGSLAIEEAMAAWSEISDNPGQERATCENLYFQN
# notes: Produced as a P1-50-TEV site-N fusion in E. coli and cleaved with TEV; also called P1-50 peptide; minimal P peptide
# Biological target: T1, N1-525 with an Histidine tag (full length measles virus nucleoprotein, Edmonston strain) (measles virus (Edmonston strain), UniProt P0DXN6 1-525)
# T1 construct: also called full length N
# T1 sequence: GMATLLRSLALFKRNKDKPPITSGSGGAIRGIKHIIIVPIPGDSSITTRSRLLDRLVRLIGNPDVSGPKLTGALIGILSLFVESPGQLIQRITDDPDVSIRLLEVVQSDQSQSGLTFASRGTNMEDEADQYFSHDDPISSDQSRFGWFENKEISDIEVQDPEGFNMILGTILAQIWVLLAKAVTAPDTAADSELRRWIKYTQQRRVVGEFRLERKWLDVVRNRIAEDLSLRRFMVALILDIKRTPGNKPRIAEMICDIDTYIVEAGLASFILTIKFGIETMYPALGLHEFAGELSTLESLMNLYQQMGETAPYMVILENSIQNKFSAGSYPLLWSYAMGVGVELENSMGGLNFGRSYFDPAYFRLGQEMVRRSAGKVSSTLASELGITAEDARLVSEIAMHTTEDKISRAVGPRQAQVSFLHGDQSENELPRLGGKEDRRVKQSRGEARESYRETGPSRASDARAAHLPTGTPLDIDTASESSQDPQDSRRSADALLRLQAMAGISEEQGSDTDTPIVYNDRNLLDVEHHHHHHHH
# Assay: co-expression, TEV cleavage, SAXS and SEC-MALLS
binder,measurement,value
B1,binding result,binds
